Experiments:
GST-Atg8a wild type = GST-Atg8a wild type (UniProt Q9W2S2); assay: GST pull-down; conditions: parent: est. 27; read off a plot
His-Dwg wild type = assay: GST pull-down; conditions: parent: est. 41; read off a plot

Sequence of UniProt Q9W2S2 (Q9W2S2 entry or part of it): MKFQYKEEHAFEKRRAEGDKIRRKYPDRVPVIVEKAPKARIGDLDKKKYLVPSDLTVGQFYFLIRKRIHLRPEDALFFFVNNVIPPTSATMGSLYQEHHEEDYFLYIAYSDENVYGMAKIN

other: Fold Change (GST-Atg8a wild type) | other: Fold Change (His-Dwg wild type) | Substance
9.5 | – | His-Dwg wild type Y129A; I132A
– | 4.4 | GST-Atg8a wild type (from UniProt Q9W2S2) Y49A
